{"source": "patent US20230174616A1", "about": "(UNIVERSITY OF SOUTHERN CALIFORNIA, published 2023)", "binders": {"B1": {"name": "ROX-SPAM (carboxy-X-rhodamine labeled SPAM peptide) (peptide)", "peptide": "MPIFLDHILNKFWILHYASG[Pra′]([triazole-ROX])-NH2", "modifications": "also: ROX attached to Pra by click triazole", "notes": "Synthetic peptide used in fluorescence polarization; also called ROX-labeled SPAM"}}, "key": {"[1]": {"molecular_target": "T1, hPD-L1* (recombinant glycosylated human PD-L1 ectodomain, A18-T239, expressed in Expi293F cells) (human, UniProt Q9NZQ7 18-239, N-glycosylated; Avi tag biotinylated in vitro with BirA)", "T1 construct": "also called glycosylated hPD-L1", "assay": "fluorescence anisotropy, 100 nM ROX-SPAM titrated with hPD-L1*", "description": "(§1) Each measurement was carried out in triplicate and the mean value was reported along with the standard deviation. […] The mean of the normalized binding for each incubation time is shown along with the standard deviation of the mean. Each measurement was carried out in triplicate and error bars show the standard deviation of the mean (Students t-test; p value <0.05 (*), <0.01 (**), <0.005 (***), <0.001 (****)).\n(§2) The resulting values were plotted against the concentration of hPD-L1 or hPD-L1* and fit to a one-site saturation binding model with GraphPad Prism."}, "[2]": {"molecular_target": "T1, hPD-L1* (recombinant glycosylated human …)", "assay": "fluorescence polarization, 100 nM ROX-SPAM with 2.4 nM-5 uM glycosylated hPD-L1*, 22 C (67 +/- 21 nM in paragraph 94); glycosylated hPD-L1*", "description": "as §2\n(§3) The fluorescence polarization of each sample was measured on a Synergy H4 Hybrid Multi-Mode Microplate Reader. Each measurement was carried out in triplicate and the mean value was calculated. The values were fit to a one-site saturation binding model in GraphPad Prism to obtain the corresponding equilibrium dissociation constants."}, "[3]": {"molecular_target": "T2, biotinylated hPD-L1 (extracellular domain of human PD-L1, Ala18 to Thr239, expressed in E. coli, … (human, biotin on the epsilon-amino group of the Avi tag lysine (BirA)))", "T2 construct": "also called recombinant hPD-L1; non-glycosylated hPD-L1", "assay": "fluorescence anisotropy, 100 nM ROX-SPAM titrated with hPD-L1", "description": "as §1, §2"}, "[4]": {"molecular_target": "T2, biotinylated hPD-L1 (extracellular …)", "assay": "fluorescence polarization, 100 nM ROX-SPAM with 2.4 nM-5 uM non-glycosylated hPD-L1, 21 C (119 +/- 33 nM in paragraph 94); non-glycosylated, E. coli-expressed hPD-L1", "description": "as §2, §3"}}, "note": "Primed or numbered codes have the meaning given here. Where no end group is shown, it is not given here. Side-chain parts run from the residue outwards. [ ]: non-standard residue; d: D form. triazole = 1,2,3-triazole formed by click reaction of the propargylglycine alkyne with ROX-azide; Pra′ = its azide, alkyne or alkene has reacted where a group follows in round brackets; ROX = carboxy-X-rhodamine, joined by click triazole", "data": [{"binder": "B1", "values": [{"measurement": "EC50 (read off the curve)", "setting": "[1]", "result": "~70", "unit": "nM"}, {"measurement": "Kd", "setting": "[2]", "result": 67, "unit": "nM"}, {"measurement": "EC50 (read off the curve)", "setting": "[3]", "result": "~100", "unit": "nM"}, {"measurement": "Kd", "setting": "[4]", "result": 119, "unit": "nM"}]}]}
